Biological target: T1, GST-DSS1 (human, UniProt P60896 1-70)
T1 construct: DSS1, human; expressed from pGEX-KG; NMR numbering runs from M1 to three residues after M67; also called recombinant GST-DSS1 protein; source: E. coli BL21 (DE3), purified (Glutathione 4B-Sepharose, MonoQ); not shown: GST, N-terminal, kept
Experiment: pull-down; quantitative: GST-DSS1 4 uM on GST beads, increasing His6-RAD52, 20 mM Tris-acetate pH 7.5, 100 mM KCl, 0.01% NP40, 1 mM DTT, 1 h, 4°C; band intensities normalised to 6 uM His6-RAD52
Details: both partners purified

T1 sequence (P60896 whole entry): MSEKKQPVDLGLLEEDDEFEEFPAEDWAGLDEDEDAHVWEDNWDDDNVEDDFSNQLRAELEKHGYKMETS

B1: His6-RAD52 (natural protein, human, UniProt P43351 1-418, looked up)
chain: MSGTEEAILGGRDSHPAAGGGSVLCFGQCQYTAEEYQAIQKALRQRLGPEYISSRMAGGGQKVCYIEGHRVINLANEMFGYNGWAHSITQQNVDFVDLNNGKFYVGVCAFVRVQLKDGSYHEDVGYGVSEGLKSKALSLEKARKEAVTDGLKRALRSFGNALGNCILDKDYLRSLNKLPRQLPLEVDLTKAKRQDLEPSVEEARYNSCRPNMALGHPQLQQVTSPSRPSHAVIPADQDCSSRSLSSSAVESEATHQRKLRQKQLQQQFRERMEKQQVRVSTPSAEKSEAAPPAPPVTHSTPVTVSEPLLEKDFLAGVTQELIKTLEDNSEKWAVTPDAGDGVVKPSSRADPAQTSDTLALNNQMVTQNRTPHSVCHQKPQAKSGSWDLQTYSADQRTTGNWESHRKSQDMKKRKYDPS
notes: RAD52, human, with His6 tag; not shown: His6, N-terminal, kept
In the case of B1, the “stoichiometry N” value is reported as 1.
